Measurements reported in the supplement of paper PMC11246515.
± gives the standard deviation of the averaged measurements.

Assay: total protein half-life in vivo (active degradation + dilution); higher = more stable protein
[1] = E. coli NCM3722 delta-clpP delta-lon delta-hslV, growth: N-lim chemostat, doubling time 6 h
[2] = E. coli NCM3722 delta-clpP, growth: N-lim chemostat, doubling time 6 h
[3] = E. coli NCM3722 delta-hslV, growth: N-lim chemostat, doubling time 6 h
[4] = E. coli NCM3722 delta-lon, growth: N-lim chemostat, doubling time 6 h
[5] = E. coli NCM3722 delta-smpB, growth: N-lim chemostat, doubling time 6 h
[6] = wild type E. coli NCM3722, growth: C-lim chemostat, doubling time 3 h
[7] = wild type E. coli NCM3722, growth: C-lim chemostat, doubling time 6 h
[8] = wild type E. coli NCM3722, growth: C-lim chemostat, doubling time 12 h
[9] = wild type E. coli NCM3722, growth: N-lim chemostat, doubling time 6 h
[10] = wild type E. coli NCM3722, growth: N-lim chemostat, doubling time 12 h
[11] = wild type E. coli NCM3722, growth: P-lim chemostat, doubling time 6 h
[12] = wild type E. coli NCM3722, growth: P-lim chemostat, doubling time 12 h

| Sequence | total protein half-life in vivo [1] [h] | total protein half-life in vivo [2] [h] | total protein half-life in vivo [3] [h] | total protein half-life in vivo [4] [h] | total protein half-life in vivo [5] [h] | total protein half-life in vivo [6] [h] | total protein half-life in vivo [7] [h] | total protein half-life in vivo [8] [h] | total protein half-life in vivo [9] [h] | total protein half-life in vivo [10] [h] | total protein half-life in vivo [11] [h] | total protein half-life in vivo [12] [h] |
| --- | --- | --- | --- | --- | --- | --- | --- | --- | --- | --- | --- | --- |
| MSRKDLANAIRALSMDAVQKANSGHPGAPMGMADIAEVLWNDFLKHNPTDPTWYDRDRFILSNGHASMLLYSLLHLTGYDLPLEELKNFRQLHSKTPGHPEIGYTPGVETTTGPLGQGLANAVGLAIAERTLAAQFNQPDHEIVDHFTYVFMGDGCLMEGISHEVCSLAGTLGLGKLIGFYDHNGISIDGETEGWFTDDTAKRFEAYHWHVIHEIDGHDPQAVKEAILEAQSVKDKPSLIICRTVIGFGSPNKAGKEEAHGAPLGEEEVALARQKLGWHHPPFEIPKEIYHAWDAREKGEKAQQSWNEKFAAYKKAHPQLAEEFTRRMSGGLPKDWEKTTQKYINELQANPAKIATRKASQNTLNAYGPMLPELLGGSADLAPSNLTIWKGSVSLKEDPAGNYIHYGVREFGMTAIANGIAHHGGFVPYTATFLMFVEYARNAARMAALMKARQIMVYTHDSIGLGEDGPTHQAVEQLASLRLTPNFSTWRPCDQVEAAVGWKLAVERHNGPTALILSRQNLAQVERTPDQVKEIARGGYVLKDSGGKPDIILIATGSEMEITLQAAEKLAGEGRNVRVVSLPSTDIFDAQDEEYRESVLPSNVAARVAVEAGIADYWYKYVGLKGAIVGMTGYGESAPADKLFPFFGFTAENIVAKAHKVLGVKGA | 4.98 ± 0.07 | 5.07 ± 0.55 | 4.95 ± 0.06 | 5.06 ± 0.13 | 4.75 ± 0.27 | 3.08 ± 0.16 | 5.63 ± 0.22 | 10.8 ± 0.69 | 4.52 ± 0.16 | 8.32 ± 0.16 | 5.83 ± 0.35 | 11.5 ± 0.12 |
| MKKVLIAALIAGFSLSATAAETIRFATEASYPPFESIDANNQIVGFDVDLAQALCKEIDATCTFSNQAFDSLIPSLKFRRVEAVMAGMDITPEREKQVLFTTPYYDNSALFVGQQGKYTSVDQLKGKKVGVQNGTTHQKFIMDKHPEITTVPYDSYQNAKLDLQNGRIDGVFGDTAVVTEWLKDNPKLAAVGDKVTDKDYFGTGLGIAVRQGNTELQQKLNTALEKVKKDGTYETIYNKWFQK | 5.31 ± 0.27 | 5.44 ± 0.31 | 6.55 ± 0.075 | 7.11 ± 0.09 | 6.01 ± 0.43 | 3.16 ± 0.44 | 5.9 ± 0.34 | 11.55 ± 0.079 | 5.64 ± 0.36 | 12.2 ± 0.92 | 6.04 ± 0.31 | 12.2 ± 0.73 |
| MYQDKILVRQLGLQPYEPISQAMHEFTDTRDDSTLDEIWLVEHYPVFTQGQAGKAEHILMPGDIPVIQSDRGGQVTYHGPGQQVMYVLLNLKRRKLGVRELVTLLEQTVVNTLAELGIEAHPRADAPGVYVGEKKICSLGLRIRRGCSFHGLALNVNMDLSPFLRINPCGYAGMEMAKISQWKPEATTNNIAPRLLENILALLNNPDFEYITA | 4.39 ± 0.44 | 4.08 ± 0.77 | 3.55 | > 8 | 3.73 ± 0.15 | 2.63 ± 0.15 | 6.03 ± 0.89 | 14.3 | 5.66 | 5.51 ± 1.4 | 5.14 ± 0.06 | 10.6 ± 0.37 |
| MKKLKLHGFNNLTKSLSFCIYDICYAKTAEERDGYIAYIDELYNANRLTEILSETCSIIGANILNIARQDYEPQGASVTILVSEEPVDPKLIDKTEHPGPLPETVVAHLDKSHICVHTYPESHPEGGLCTFRADIEVSTCGVISPLKALNYLIHQLESDIVTIDYRVRGFTRDINGMKHFIDHEINSIQNFMSDDMKALYDMVDVNVYQENIFHTKMLLKEFDLKHYMFHTKPEDLTDSERQEITAALWKEMREIYYGRNMPAV [P0A7F6] |  | 4.12 ± 0.42 | 3.29 ± 0.22 | 3.67 ± 0.29 | 3.3 ± 0.2 | 2.8 ± 0.15 | 4.99 | 9.17 ± 0.37 | 2.928 ± 0.015 | 4.17 ± 0.036 | 4.78 ± 0.48 | 7.61 ± 1.4 |
| MLSRHINYFLAVAEHGSFTRAASALHVSQPALSQQIRQLEESLGVPLFDRSGRTIRLTDAGEVWRQYASRALQELGAGKRAIHDVADLTRGSLRIAVTPTFTSYFIGPLMADFYARYPSITLQLQEMSQEKIEDMLCRDELDVGIAFAPVHSPELEAIPLLTESLALVVAQHHPLAVHEQVALSRLHDEKLVLLSAEFATREQIDHYCEKAGLHPQVVIEANSISAVLELIRRTSLSTLLPAAIATQHDGLKAISLAPPLLERTAVLLRRKNSWQTAAAKAFLHMALDKCAVVGGNESR | 5.07 ± 0.31 |  |  | 6.84 |  | 2.02 ± 0.18 | 4.75 ± 0.2 | 6.21 |  | 12.6 | 5.54 | 5.16 ± 2 |
| MTTHDRVRLQLQALEALLREHQHWRNDEPQPHQFNSTQPFFMDTMEPLEWLQWVLIPRMHDLLDNKQPLPGAFAVAPYYEMALATDHPQRALILAELEKLDALFADDAS | 5.66 ± 0.27 |  |  |  | 3.91 | 2.09 | 4.97 ± 0.19 | 11.8 ± 5.3 | 3.394 ± 0.03 | 6.93 | 3.49 ± 1.9 | 7.56 ± 1.8 |
